Assay results published in PMC2936243 (Journal of neurochemistry, 2010).

Molecular target: native rat α7 nicotinic acetylcholine receptor (hippocampus) (rat (endogenous in hippocampus)) (UniProt Q05941)
Assay: radioligand binding

## Alexa Fluor 546-ArIB[V11L;V16A] (peptide)
  IC50: 7.9 nM
  Ki: 1.8 nM
